Data: patent US20160185837A1 (Medimmune Limited, priority 2013, published 2016)
Like-named read-outs stand apart in the source and are kept apart here.

What was measured:
Type in all cases: cell-based
[1] = target: T1, rat GLP-1 receptor (rGLP-1r) (Rattus norvegicus, UniProt P32301); experiment: BSA-cAMP assay, cells expressing rat GLP-1 receptor; details: BSA-cAMP assay, read-out: rGLP1r cAMP activity EC50
T1 construct: expressed in transfected cells; host or cells: HEK293s or CHO cells
T1 sequence (P32301 22-463): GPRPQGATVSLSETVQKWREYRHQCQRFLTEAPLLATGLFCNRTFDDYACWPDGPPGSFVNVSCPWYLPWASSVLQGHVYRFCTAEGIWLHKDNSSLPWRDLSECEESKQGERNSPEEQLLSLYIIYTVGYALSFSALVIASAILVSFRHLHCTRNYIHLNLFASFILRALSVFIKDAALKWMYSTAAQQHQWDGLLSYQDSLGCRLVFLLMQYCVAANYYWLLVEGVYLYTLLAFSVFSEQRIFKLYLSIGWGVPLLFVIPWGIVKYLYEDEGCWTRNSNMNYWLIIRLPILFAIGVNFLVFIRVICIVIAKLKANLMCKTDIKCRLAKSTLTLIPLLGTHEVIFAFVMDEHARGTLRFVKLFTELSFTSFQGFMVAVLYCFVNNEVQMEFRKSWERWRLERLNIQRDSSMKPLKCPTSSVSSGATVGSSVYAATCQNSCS
In short: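 EC50 is the midpoint of an unconstrained 4-parameter logistic fit to HTRF cAMP data, expressed as percent of maximal native agonist response, from two separate occasions. Rodent (mouse, rat) GLP-1R- or GIPR-expressing cells were incubated with compound 30 min at room temperature in 0.1% BSA medium, in duplicate.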

[2] = target: T2, human GIP receptor (hGIPr) (Homo sapiens, UniProt P48546); experiment: BSA-cAMP assay, cells expressing human GIP receptor; details: BSA-cAMP assay, read-out: hGIPr cAMP activity EC50
T2 construct: expressed in transfected cells
T2 sequence (P48546 22-466): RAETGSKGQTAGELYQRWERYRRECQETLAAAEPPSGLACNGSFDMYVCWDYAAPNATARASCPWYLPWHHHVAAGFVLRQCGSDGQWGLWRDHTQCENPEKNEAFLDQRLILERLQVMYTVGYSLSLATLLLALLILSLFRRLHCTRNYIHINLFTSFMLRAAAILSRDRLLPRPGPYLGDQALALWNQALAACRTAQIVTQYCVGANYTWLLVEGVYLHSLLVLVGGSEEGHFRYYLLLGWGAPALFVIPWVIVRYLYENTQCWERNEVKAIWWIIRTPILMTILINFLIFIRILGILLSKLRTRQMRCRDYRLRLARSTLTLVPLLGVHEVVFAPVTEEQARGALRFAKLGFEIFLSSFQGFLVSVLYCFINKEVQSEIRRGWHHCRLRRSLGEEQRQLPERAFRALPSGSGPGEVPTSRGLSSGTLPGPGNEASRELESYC
In short: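 EC50 came from an unconstrained 4-parameter logistic fit of HTRF cAMP data expressed as percent of maximal native agonist activation, tested on two occasions. Thawed receptor-expressing cells (hGLP-1r, hGIPr at 0.5×10^5 cells/ml) treated 30 min at room temperature in 0.1% BSA-containing medium; two distinct hGIPr lines.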

hGIPr (C3) = target: T3, hGIPr (C3) (Homo sapiens, UniProt P48546); experiment: BSA-cAMP assay, second human GIPr cell line hGIPr (C3); details: Batch 1, second hGIPr cell line, read-out: hGIPr (C3) cAMP activity EC50
T3 construct: expressed in transfected cells
T3 sequence (P48546 22-466): T2 sequence (P48546 22-466)
Procedure: For human GIPr, two different lines were used, shown as “hGIPr” and “hGIPr (C3)” in Table 11. Peptide activation of these various receptors results in downstream production of cAMP second messenger that can be measured in a functional activity assay.
One basic cAMP assays was performed, differing in the medium used for the assay, the “BSA-cAMP assay”:
BSA-based assay medium: 0.1% bovine serum albumin (BSA) in
Hanks Balanced Salt Solution (GIBCO or Sigma), containing 0.5 mM IBMX (Sigma #17018);
In certain aspects, the assay can also be carried out in medium supplemented with serum albumin that corresponds to the receptor being tested, e.g., human serum albumin for testing cAMP activity at hGIPr or hGLP-1r, rat serum albumin for testing cAMP activity at rGIPr or rGLP-1r, and so on. […]
cAMP levels were measured using a commercially available cAMP dynamic 2 HTRF kit (Cisbio, Cat #62AM4PEJ), following the two step protocol as per manufacturer's recommendations. […] Plates were incubated at room temperature for one hour and then read on an Envision (Perkin Elmer) using excitation wavelength of 320 nm and emission wavelengths of 620 nm & 665 nm. Data was transformed to % Delta F as described in manufacturer's guidelines and then transformed to percent activation of maximal native agonist response and analysed by 4-parameter logistic fit to determine EC50 values. […]

Row | Substance | EC50 ([1]; Batch 1) [nM] | EC50 ([2]; Batch 1) [nM] | EC50 ([2]; Batch 2) [nM] | EC50 ([1]; Batch 2) [nM] | EC50 (hGIPr (C3)) [nM]
1 | IP320 (YSEGTFTSDYAAAAEAAAAAAFAAWLAAAAGGGGGSGGGGSGGGGSGGGGSACPPC) | 130 | 9.6 | 44 | – | –
2 | IP396 (YSEGTFTSDYSKLLERQAIDEFIAWLLKGGGGGGGSGGGGSGGGGSGGGGSACPPC) | 0.057 | 0.0093 | – | 0.01 | –
3 | IP412: Fc fusion, IgG1-TM, SEQ ID NO:387; agonist peptide YSEGTFTSDYSKLLEEEANRLFIEWLLAGG (YSEGTFTSDYSKLLEEEANRLFIEWLLAGGGGGGSGGGGSGGGGSGGGGSATHTCPPC) | – | – | – | – | 1.3
